Results from US20230174651A1.

Assays:
[1] = target: CD79b CAR with CD8α hinge as the spacer; assay: flow cytometry, NK cell line-1 transduced with CD79b CAR construct 137LH at MOI 5, AF647-CD79b at 1 µg/ml; same gate on untransduced (UTD) cells 0.23
Target sequence (P01732 138-182): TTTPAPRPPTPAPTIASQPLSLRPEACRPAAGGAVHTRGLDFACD

[2] = target: CD79b CAR with CD8α hinge as the spacer; assay: flow cytometry, NK cell line-1 transduced with CD79b CAR construct 441HL at MOI 5, AF647-CD79b at 1 µg/ml; same gate on untransduced (UTD) cells 0.23
[3] = target: CD79b CAR with CD8α hinge as the spacer; assay: flow cytometry, NK cell line-2 transduced with CD79b CAR construct 137LH at MOI 5, AF647-CD79b at 1 µg/ml; same gate on untransduced (UTD) cells 0.32
[4] = target: CD79b CAR with CD8α hinge as the spacer; assay: flow cytometry, NK cell line-2 transduced with CD79b CAR construct 441HL at MOI 5, AF647-CD79b at 1 µg/ml; same gate on untransduced (UTD) cells 0.32
[5] = target: CD79b CAR with CD8α hinge as the spacer; assay: flow cytometry, NK cell line-1 transduced with CD79b CAR construct 137LH at MOI 20, AF647-CD79b at 1 µg/ml; same gate on untransduced (UTD) cells 0.23
[6] = target: CD79b CAR with CD8α hinge as the spacer; assay: flow cytometry, NK cell line-1 transduced with CD79b CAR construct 441HL at MOI 20, AF647-CD79b at 1 µg/ml; same gate on untransduced (UTD) cells 0.23
[7] = target: CD79b CAR with CD8α hinge as the spacer; assay: flow cytometry, NK cell line-2 transduced with CD79b CAR construct 137LH at MOI 20, AF647-CD79b at 1 µg/ml; same gate on untransduced (UTD) cells 0.32
[8] = target: CD79b CAR with CD8α hinge as the spacer; assay: flow cytometry, NK cell line-2 transduced with CD79b CAR construct 441HL at MOI 20, AF647-CD79b at 1 µg/ml; same gate on untransduced (UTD) cells 0.32

AF647-CD79b, sequence (P40259 29-159 limits assumed): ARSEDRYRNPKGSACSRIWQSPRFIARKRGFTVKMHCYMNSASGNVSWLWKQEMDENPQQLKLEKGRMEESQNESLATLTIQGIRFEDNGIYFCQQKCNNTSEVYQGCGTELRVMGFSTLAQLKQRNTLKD

- % positive (CD79b CAR+ NK cells) [1]: 67.1%
- % positive (CD79b CAR+ NK cells) [2]: 69.9%
- % positive (CD79b CAR+ NK cells) [3]: 47.4%
- % positive (CD79b CAR+ NK cells) [4]: 72.2%
- % positive (CD79b CAR+ NK cells) [5]: 74.5%
- % positive (CD79b CAR+ NK cells) [6]: 80.8%
- % positive (CD79b CAR+ NK cells) [7]: 71.2%
- % positive (CD79b CAR+ NK cells) [8]: 85.2%
Substance: AF647-CD79b (from UniProt P40259 29-159)
